{
  "source": "patent US20190270818A1",
  "about": "(Eli Lilly, published 2019)",
  "binders": {"B1": {"name": "Antibody 1 (antibody, human IgG1, kappa, V domains shown)", "VH": "QVQLVQSGAEVKKPGASVKVSCKVSGYSLSKYDMSWVRQAPGKGLEWMGIIYTSGYTDYAQKFQGRVTMTEDTSTDTAYMELSSLRSEDTAVYYCATGNPYYTNGFNSWGQGTLVTVSS", "VL": "DIQMTQSPSSLSASVGDRVTITCQASQSPNNLLAWYQQKPGKAPKLLIYGASDLPSGVPSRFSGSGSGTDFTLTISSLQPEDFATYYCQNNYYVGPVSYAFGGGTKVEIKR", "notes": "Humanized IgG1 with kappa light chain; also called anti-human PD-1 agonist antibody; anti-human PD-1 agonist IgG1 antibody"}},
  "key": {"[1]": {"target": "T1, Cynomolgus monkey PD-1 (cell membrane expressed) (cynomolgus monkey, UniProt Q15116 25-288 (human entry))", "T1 construct": "Stably expressed on CHO-K1 cells; no cleavage site is stated; also called cyno PD-1; cynomolgus PD-1", "T1 chain": "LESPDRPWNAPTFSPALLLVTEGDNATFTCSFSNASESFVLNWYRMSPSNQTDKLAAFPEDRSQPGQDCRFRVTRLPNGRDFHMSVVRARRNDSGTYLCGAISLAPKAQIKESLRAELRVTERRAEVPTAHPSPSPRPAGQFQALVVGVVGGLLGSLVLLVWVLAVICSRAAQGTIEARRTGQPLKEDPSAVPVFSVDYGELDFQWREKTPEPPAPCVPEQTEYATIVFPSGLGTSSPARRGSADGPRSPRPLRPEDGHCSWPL", "test": "flow cytometry on CHO cells expressing cynomolgus monkey PD-1, GMFI, 4-parameter fit, average", "source_text": "(§1) The ability of the anti-human PD-1 agonist antibodies disclosed herein to bind to cell surface human or cynomolgus monkey PD-1 can be measured using a flow cytometric assay. Human and cynomolgus monkey PD-1 (i.e., as shown in SEQ ID NOs: 13 and 15, respectively) expressing stable cells are generated by transfecting human or cynomolgus monkey PD-1 plasmid DNA into Chinese Hamster Ovary cells (CHO-kl; Lonza) using an electroporation system (Gene Pulser Xcell; BioRad) according to established protocols. Stable cells are selected from single isolated cells using 500 μg/mL G418 (Thermo Scientific) in culture medium. For flow cytometry, the cells are transferred into a 96-well V-bottom plate at density of 1×10⁵ cells/well. The cells are washed with 1×FACS buffer (Becton Dickinson #554656). Antibody 1, or control human IgG1 (diluted in FACS buffer in a three-fold 12-point titration of the antibodies, starting at 100 micrograms/mL) are added (in 100 microliters) and cells are incubated at 4° C. for 30 minutes.\n(§2) After washing twice in FACS buffer, live/dead cell staining is performed using SytoxBlue (Invitrogen, #S34857) per manufacturer's protocol. […] Flow cytometry data is analyzed using FlowJo software. Geometric Mean Fluorescence Intensity (GMFI) values are used to calculate relative EC₅₀ based on 4-parameter logistic regression."}, "[2]": {"target": "T2, Human PD-1 (cell membrane expressed) (human, UniProt Q15116 25-288)", "T2 construct": "no cleavage site is stated; also called hPD-1; CD279", "T2 sequence (Q15116 25-288 limits assumed)": "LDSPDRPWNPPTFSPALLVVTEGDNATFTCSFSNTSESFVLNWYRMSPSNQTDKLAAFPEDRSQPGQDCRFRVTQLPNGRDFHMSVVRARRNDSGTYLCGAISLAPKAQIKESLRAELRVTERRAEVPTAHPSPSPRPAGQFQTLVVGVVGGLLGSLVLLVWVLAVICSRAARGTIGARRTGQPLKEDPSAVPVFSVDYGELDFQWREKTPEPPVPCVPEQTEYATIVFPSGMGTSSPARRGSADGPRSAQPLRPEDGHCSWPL", "test": "flow cytometry on CHO cells expressing human PD-1, GMFI, 4-parameter fit, average", "source_text": "as §1, §2"}, "[3]": {"target": "T3, Cynomolgus monkey PD1-extracellular domain (ECD)-His (cynomolgus monkey)", "T3 construct": "Expressed in CHO cells, purified by IMAC and size exclusion; also called cynomolgus monkey PD-1 ECD; cynomolgus PD1-ECD-his", "T3 chain": "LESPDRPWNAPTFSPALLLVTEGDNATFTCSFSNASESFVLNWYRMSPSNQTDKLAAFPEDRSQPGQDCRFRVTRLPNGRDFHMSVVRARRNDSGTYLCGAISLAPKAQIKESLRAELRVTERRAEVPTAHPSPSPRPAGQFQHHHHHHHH", "test": "SPR, Biacore T200, 37° C., mAb captured, PD1-ECD-His as analyte, mean ± SD, n=9", "method": "(§3) In subsequent experiments, Biacore was used to measure the binding kinetics for Antibody 1 to human and cynomolgus monkey PD1-extracellular domain (ECD)-His via surface plasmon resonance (SPR) at 37° C. by BIAcore® T200. For analyses at 37° C., binding is evaluated using multiple analytical cycles. Each cycle is performed at 37° C. at a flow rate of 10 μl/minute for mAb capture and 100 μl/minute for ligand association and dissociation. Each cycle consists of the following steps: injection of mAb at 2.5 μg/ml targeting a capture level of approximately 220RUs on flow cell 2, injection of 180 seconds of human or cynomolgus PD1-ECD-his (concentration range of […] to 1.6 nM by 2-fold serial dilution) followed by 600 second dissociation phase, and regeneration using 10 mM glycine hydrochloride, pH 1.5 over a 30 second contact time. Kon, Koff, and KD are calculated essentially as described above. Affinity data is reported as average and standard deviations determined from triplicate measurements in three independent experiments (mean±SD, n=9)."}, "[4]": {"target": "T4, Human PD1-extracellular domain (ECD)-His (human, UniProt Q15116 25-167)", "T4 construct": "Expressed in CHO cells, purified by IMAC and size exclusion; also called human PD-1 ECD; human PD1-ECD-his", "test": "SPR, Biacore T200, 37° C., mAb captured, PD1-ECD-His as analyte, mean ± SD, n=9", "method": "as §3"}, "[5]": {"target": "T4, Human PD1-extracellular domain (ECD)-His", "test": "SPR, Biacore T200, 37° C., mAb captured, PD1-ECD-His as analyte, mean ± SD, n=9; 37° C. (n=9)", "method": "as §3"}, "[6]": {"target": "T3, Cynomolgus monkey PD1-extracellular …", "test": "SPR, Biacore 8K, 25° C., mAb captured on protein A, PD1-ECD-His as analyte, n=1", "method": "(§4) The binding kinetics of an anti-human PD-1 agonist antibody of the invention to human and cynolmolgus monkey PD-1 ECDs may be determined by use of a surface plasmon resonance biosensor such as BIAcore® 2000, BIAcore® 3000, BIAcore® 8K, or a BIAcore® T100 (GE Healthcare, Piscataway, N.J.). Briefly described, a BIAcore® 8K instrument is used to measure the binding kinetics for Antibody 1 to human and cynomolgus monkey PD1-extracellular domain (ECD)-His via surface plasmon resonance (SPR) at 25° C. Samples are dissolved in 1×HBS-EP+ running buffer (Teknova cat. # H8022) and a protein A coupled CMS Series S sensor chip (GE Healthcare Cat #29139131-AA) is utilized to capture mAb. Human and cynomolgus monkey PD1-ECD proteins which contain a C-terminal 8× histidine tag are expressed in CHO cells and purified by nickel charged IMAC followed by size exclusion.\n(§5) Binding is evaluated using multiple analytical cycles. Each cycle is performed at 25° C. at a flow rate of 10 μl/minute for mAb capture and 30 μl/minute for ligand association and dissociation. Each cycle consists of the following steps: injection of mAb at 2 μg/ml for 60 s contact time targeting a capture level of approximately 220RUs on flow cell 2, injection of 150 seconds of human or cynomolgus PD1-ECD-his (concentration range of 400 nM to 1.6 nM by four fold serial dilution) followed by 600 second dissociation phase, and regeneration using 10 mM glycine hydrochloride, pH 1.5 over a 30 second contact time. Association (i.e., Kon) and dissociation rates (i.e., Koff) for each cycle are evaluated using standard double referencing and fit to “1:1 (Langmuir) binding” model in the Biacore 8K evaluation in parallel kinetics batch mode. The affinity (KD) is calculated from the binding kinetics according to the relationship KD=Koff/Kon."}, "[7]": {"target": "T4, Human PD1-extracellular domain (ECD)-His", "test": "SPR, Biacore 8K, 25° C., mAb captured on protein A, PD1-ECD-His as analyte, n=1", "method": "as §4, §5"}, "[8]": {"target": "T2, Human PD-1 (cell membrane expressed)", "test": "cell-based or functional assay"}},
  "data": [
    {"binder": "B1", "values": [
      {"measurement": "EC50", "setting": "[1]", "result": 1.09, "unit": "mg/L"},
      {"measurement": "EC50", "setting": "[2]", "result": 1.3, "unit": "mg/L"},
      {"measurement": "Kd", "setting": "[3]", "result": 9.51, "unit": "nM"},
      {"measurement": "koff", "setting": "[3]", "result": 0.00489, "unit": "s⁻¹"},
      {"measurement": "kon", "setting": "[3]", "result": 519000, "unit": "M⁻¹ s⁻¹"},
      {"measurement": "Kd", "setting": "[4]", "result": 2.29, "unit": "nM"},
      {"measurement": "koff", "setting": "[4]", "result": 0.000701, "unit": "s⁻¹"},
      {"measurement": "kon", "setting": "[5]", "result": 307000, "unit": "M⁻¹ s⁻¹"},
      {"measurement": "Kd", "setting": "[6]", "result": 4.7, "unit": "nM"},
      {"measurement": "koff", "setting": "[6]", "result": 0.0011, "unit": "s⁻¹"},
      {"measurement": "kon", "setting": "[6]", "result": 240000, "unit": "M⁻¹ s⁻¹"},
      {"measurement": "Kd", "setting": "[7]", "result": 1, "unit": "nM"},
      {"measurement": "koff", "setting": "[7]", "result": 0.00017, "unit": "s⁻¹"},
      {"measurement": "kon", "setting": "[7]", "result": 170000, "unit": "M⁻¹ s⁻¹"},
      {"measurement": "inhibition of human PD-1 NFAT-luciferase reporter cell activity (IC50)", "setting": "[8]", "result": 0.0752, "unit": "mg/L"}
    ]}
  ]
}
